These results are taken from patent US9029508 (dated 2015).

One assay has as its target CD40 (human, UniProt P25942). The assay can be described thus: ELISA.
Another assay concerns the target T1, CD19 (human, UniProt P15391).
T1 chain: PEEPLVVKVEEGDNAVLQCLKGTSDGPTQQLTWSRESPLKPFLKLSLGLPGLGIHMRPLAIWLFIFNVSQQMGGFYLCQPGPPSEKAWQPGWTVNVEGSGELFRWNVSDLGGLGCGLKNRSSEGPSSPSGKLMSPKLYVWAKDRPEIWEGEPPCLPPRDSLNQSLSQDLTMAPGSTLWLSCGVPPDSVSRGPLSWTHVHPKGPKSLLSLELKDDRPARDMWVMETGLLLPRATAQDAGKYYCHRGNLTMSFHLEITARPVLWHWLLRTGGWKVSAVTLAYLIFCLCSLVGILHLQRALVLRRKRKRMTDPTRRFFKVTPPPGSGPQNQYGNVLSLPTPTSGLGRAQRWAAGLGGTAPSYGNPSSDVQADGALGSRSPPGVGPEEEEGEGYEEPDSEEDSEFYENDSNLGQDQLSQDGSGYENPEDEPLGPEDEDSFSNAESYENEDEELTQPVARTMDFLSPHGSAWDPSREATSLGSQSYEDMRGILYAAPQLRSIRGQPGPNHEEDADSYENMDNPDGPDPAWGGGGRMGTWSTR
The assay can be described thus: ELISA.

For assay [1], the target named is T2, IGF2 (human, UniProt P01344). In words: SPR.
Assay [2] has as its target T3, IGF1 (human, UniProt P05019). The assay can be described thus: ELISA.
The target in assay [3] is T2, IGF2. The assay can be described thus: ELISA.
Assay [4] concerns the target T2, IGF2. The assay can be described thus: ELISA. The source holds these as a separate data set.
Assay [5] has as its target T3, IGF1. The assay can be described thus: ELISA. The source holds these as a separate data set.
Assay [6] deals with T4, HGF (human, UniProt P14210). In words: SPR.
T4 sequence (P14210 32-728): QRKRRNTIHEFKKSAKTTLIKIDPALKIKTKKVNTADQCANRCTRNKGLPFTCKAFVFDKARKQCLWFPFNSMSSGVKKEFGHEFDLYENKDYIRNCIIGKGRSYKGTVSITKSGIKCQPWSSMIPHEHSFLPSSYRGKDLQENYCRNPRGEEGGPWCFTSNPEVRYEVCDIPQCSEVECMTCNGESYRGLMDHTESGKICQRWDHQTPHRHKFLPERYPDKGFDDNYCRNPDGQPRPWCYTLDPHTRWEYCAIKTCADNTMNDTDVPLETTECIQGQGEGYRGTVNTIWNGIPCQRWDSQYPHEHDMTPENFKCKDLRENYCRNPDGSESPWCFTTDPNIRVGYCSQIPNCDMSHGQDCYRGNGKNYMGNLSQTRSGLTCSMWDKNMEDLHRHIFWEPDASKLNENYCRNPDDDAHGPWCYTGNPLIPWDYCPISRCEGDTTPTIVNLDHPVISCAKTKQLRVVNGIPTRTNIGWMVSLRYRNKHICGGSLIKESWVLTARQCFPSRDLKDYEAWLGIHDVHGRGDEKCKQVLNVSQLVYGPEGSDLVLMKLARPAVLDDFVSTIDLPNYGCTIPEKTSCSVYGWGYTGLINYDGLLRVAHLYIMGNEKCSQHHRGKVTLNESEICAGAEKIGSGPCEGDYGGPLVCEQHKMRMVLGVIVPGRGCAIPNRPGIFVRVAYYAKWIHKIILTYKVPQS
The target in assay [7] is T4, HGF. In words: ELISA.
Assay [8] deals with T4, HGF. The assay can be described thus: competition.
Assay [9] concerns the target T5, DLL4 (human, UniProt Q9NR61). The assay can be described thus: ELISA.
Assay [10] addresses T5, DLL4. The assay can be described thus: competition.
Assay [11] addresses T5, DLL4. The assay can be described thus: SPR.
In assay [12] the target is T6, ErbB3 (human, UniProt P21860). The assay can be described thus: SPR.
The target of assay [13] is T6, ErbB3. In words: ELISA.
The target in assay [14] is T6, ErbB3. In words: ELISA. This is another data set of the same source.
Assay [15] deals with T7, IGF1R (human, UniProt P08069). The assay can be described thus: ELISA.
Assay [16] concerns the target T7, IGF1R. The assay can be described thus: ELISA. This is another data set of the same source.

Values joined by “and” are separate entries in the source; they are usually repeats but may differ in a detail not shown here. Equal values may be shown once. Read-outs that look alike come from different tables or passages of the source.

T5 sequence (Q9NR61 27-524): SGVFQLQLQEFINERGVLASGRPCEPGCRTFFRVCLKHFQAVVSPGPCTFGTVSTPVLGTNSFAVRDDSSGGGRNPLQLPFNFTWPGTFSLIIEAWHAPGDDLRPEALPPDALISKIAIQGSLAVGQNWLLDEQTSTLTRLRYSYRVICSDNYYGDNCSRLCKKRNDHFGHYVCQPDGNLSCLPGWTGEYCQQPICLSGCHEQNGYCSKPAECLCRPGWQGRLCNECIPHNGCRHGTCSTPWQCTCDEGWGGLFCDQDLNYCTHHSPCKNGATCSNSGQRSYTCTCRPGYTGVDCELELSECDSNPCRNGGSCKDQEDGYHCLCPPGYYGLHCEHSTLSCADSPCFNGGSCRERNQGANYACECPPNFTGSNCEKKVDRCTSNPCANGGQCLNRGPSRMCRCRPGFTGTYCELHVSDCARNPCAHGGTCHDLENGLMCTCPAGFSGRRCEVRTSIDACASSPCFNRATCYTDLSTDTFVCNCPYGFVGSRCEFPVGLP
CD40, sequence (P25942 21-193): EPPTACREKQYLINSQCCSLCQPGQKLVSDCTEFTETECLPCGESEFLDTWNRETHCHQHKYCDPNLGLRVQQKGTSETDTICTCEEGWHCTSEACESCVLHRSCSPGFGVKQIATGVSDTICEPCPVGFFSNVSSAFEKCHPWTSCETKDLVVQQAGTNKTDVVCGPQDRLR

B1: DVD010 CD40 arm (antibody, V domains shown)
VH: QVQLVESGGGVVQPGRSLRLSCAASGFTFSSYGMHWVRQAPGKGLEWVAVISYEESNRYHADSVKGRFTISRDNSKITLYLQMNSLRTEDTAVYYCARDGGIAAPGPDYWGQGTLVTVSS
VL: DIVMTQSPLSLTVTPGEPASISCRSSQSLLYSNGYNYLDWYLQKPGQSPQVLISLGSNRASGVPDRFSGSGSGTDFTLKISRVEAEDVGVYYCMQARQTPFTFGPGTKVDIRR
modifications: DVD-Ig outer
The molecule B1 had an EC50 in the assay with CD40 of 0.82 nM.

B2: DVD002 CD19 arm (antibody, V domains shown)
VH: QVQLQQSGAELVRPGSSVKISCKASGYAFSSYWMNWVKQRPGQGLEWIGQIWPGDGDTNYNGKFKGKATLTADESSSTAYMQLSSLASEDSAVYFCARRETTTVGRYYYAMDYWGQGTSVTVSS
VL: DILLTQTPASLAVSLGQRATISCKASQSVDYDGDSYLNWYQQIPGQPPKLLIYDASNLVSGIPPRFSGSGSGTDFTLNIHPVEKVDAATYHCQQSTEDPWTFGGGTKLEIKR
modifications: DVD-Ig outer
With B2, the EC50 with CD19 was determined as 0.07 nM.

B3: DVD013 CD19 arm (antibody, V domains shown)
VH: B2 VH
VL: B2 VL
modifications: DVD-Ig inner
Regarding B3, the concentration giving a half-maximal response (EC50) with CD19 was 7.29 nM. Against the preceding molecule, the EC50 is about 100-fold higher.

B4: DVD014 CD19 arm (antibody, V domains shown)
VH: B2 VH
VL: B2 VL
modifications: DVD-Ig outer
B4 came in with an EC50 in the assay with CD19 of 0.12 nM.

B5: DVD001 CD19 arm (antibody, V domains shown)
VH: B2 VH
VL: B2 VL
modifications: DVD-Ig inner
B5 had an EC50 in the assay with CD19 of 12.9 nM.

B6: DVD041 IGF1,2 arm (antibody, V domains shown)
VH: QVQLVQSGAEVKKPGASVKVSCKASGYTFTSYDINWVRQATGQGLEWMGWMNPNSGNTGYAQKFQGRVTMTRNTSISTAYMELSSLRSEDTAVYYCARDPYYYYYGMDVWGQGTTVTVSS
VL: QSVLTQPPSVSAAPGQKVTISCSGSSSNIENNHVSWYQQLPGTAPKLLIYDNNKRPSGIPDRFSGSKSGTSATLGITGLQTGDEADYYCETWDTSLSAGRVFGGGTKLTVLG
modifications: DVD-Ig inner
Turning to B6, in the assay with IGF2 [1], the Kd is below 0.0124 nM. The EC50 with IGF1 [2] stood at 381 nM; with IGF2 [3] it was 7340 nM; with IGF2 [4], 7340 nM; with IGF1 [5], 381 nM.

B7: DVD042 IGF1,2 arm (antibody, V domains shown)
VH: B6 VH
VL: B6 VL
modifications: DVD-Ig outer
B7: binding in the assay with IGF2 [1] was characterised by a dissociation constant (Kd) of 0.000998 nM. Further, the EC50 with IGF1 [2] worked out at 2.54 nM; in the assay with IGF2 [3] it was 17.6 nM; with IGF2 [4], 17.6 nM; in the assay with IGF1 [5] it was 2.5 nM.

B8: DVD034 HGF arm (antibody, V domains shown)
VH: QVQLVESGGGLVKPGGSLRLSCAASGFTFSDYYMSWIRQAPGKGLEWVSYISSSGSTIYYADSVKGRFTISRDNAKNSLYLQMNSLRAEDTAVYYCARDEYNSGWYVLFDYWGQGTLVTVSS
VL: DIQMTQSPSSVSASVGDRVTITCRASQGISSWLAWYQQKPGKAPNLLIYEASSLQSGVPSRFGGSGSGTDFTLTISSLQPEDFATYYCQQANGFPWTFGQGTKVEIKR
modifications: DVD-Ig outer
For B8, the Kd with HGF [6] was 0.0215 nM. The molecule also gave an EC50 with HGF [7] of 0.27 nM. Also, the IC50 with HGF [8] worked out at 0.34 nM.

B9: AB012 (antibody, V domains shown)
VH: B8 VH
VL: B8 VL
For B9, the Kd with HGF [6] was below 0.0284 nM. Also, the EC50 with HGF [7] was 0.19 nM and 0.22 nM. The molecule further displayed an IC50 with HGF [8] of 0.18 nM.

B10: DVD025 HGF arm (antibody, V domains shown)
VH: B8 VH
VL: B8 VL
modifications: DVD-Ig inner
In the assay with HGF [6], B10 registered a Kd of 0.746 nM. This molecule came in with an EC50 in the assay with HGF [7] of 251 nM. Moreover, the IC50 with HGF [8] is above 100 nM.

B11: DVD258 DLL4 arm (antibody)
chain 1: EVQLVESGGGLVQPGGSLRLSCAASGFTFTDNWISWVRQAPGKGLEWVGYISPNSGFTYYADSVKGRFTISADTSKNTAYLQMNSLRAEDTAVYYCARDNFGGYFDYWGQGTLVTVSS
chain 2: DIQMTQSPSSLSASVGDRVTITCRASQDVSTAVAWYQQKPGKAPKLLIYSASFLYSGVPSRFSGSGSGTDFTLTISSLQPEDFATTYYCQQSYTGTVTFGQGTKVEIKR
modifications: DVD-Ig inner
In the assay with DLL4 [9], B11 registered an EC50 of 2.3 nM. In the assay with DLL4 [10], this molecule had an IC50 of 17.5 nM.

B12: DVD257 DLL4 arm (antibody)
chain 1: B11 chain 1
chain 2: B11 chain 2
modifications: DVD-Ig outer
Molecule B12 yielded a Kd with DLL4 [11] of 0.234 nM. For the same molecule, the response with DLL4 [9] was half-maximal at 0.28 nM (EC50). The same molecule had an IC50 in the assay with DLL4 [10] of 0.38 nM.

B13: AB063 (antibody, V domains shown)
VH: EVQLVESGGGLVQPGGSLRLSCAASGFTFSIYSMNWVRQAPGKGLEWVSYISSSSSTIYYADSVKGRFTISRDNAKNSLYLQMNSLRDEDTAVYYCARDRGDFDAFDIWGQGTMVTVSS
VL: DIQMTQSPSSLSASVGDRVTITCQASQDITNYLNWYQQKPGKAPKLLIYDASNLETGVPSRFSGSGSGTDFTFTISSLQPEDIATYNCQQCENFPITFGQGTRLEIKR
As for B13, the Kd in the assay with ErbB3 [12] was determined as 0.15 nM. In addition, the figures for the EC50 with ErbB3 [13] and in the assay with ErbB3 [14] were 0.67 nM and 0.28 nM, respectively.

B14: DVD306 ErbB3 arm (antibody, V domains shown)
VH: B13 VH
VL: B13 VL
modifications: DVD-Ig inner
For B14, the results for the EC50 with ErbB3 [13] and in the assay with ErbB3 [14] were above 10 nM and 151 nM, respectively.

B15: DVD305 ErbB3 arm (antibody, V domains shown)
VH: B13 VH
VL: B13 VL
modifications: DVD-Ig outer
With B15, binding in the assay with ErbB3 [12] was characterised by a dissociation constant (Kd) of 0.0603 nM. For the same molecule, the EC50 turned out to be 1.16 nM with ErbB3 [13] and 0.44 nM with ErbB3 [14].

B16: DVD031 IGF1R arm (antibody, V domains shown)
VH: EVQLLESGGGLVQPGGSLRLSCTASGFTFSSYAMNWVRQAPGKGLEWVSAISGSGGTTFYADSVKGRFTISRDNSRTTLYLQMNSLRAEDTAVYYCAKDLGWSDSYYYYYGMDVWGQGTTVTVSS
VL: DIQMTQFPSSLSASVGDRVTITCRASQGIRNDLGWYQQKPGKAPKRLIYAASRLHRGVPSRFSGSGSGTEFTLTISSLQPEDFATYYCLQHNSYPCSFGQGTKLEIKR
modifications: DVD-Ig inner
As for B16, the EC50 with IGF1R [15] and with IGF1R [16] was 171 nM in each case.

B17: DVD021 IGF1R arm (antibody, V domains shown)
VH: B16 VH
VL: B16 VL
modifications: DVD-Ig inner
Regarding B17, the EC50 in the assay with IGF1R [15] and with IGF1R [16] was 135 nM each time.

B18: DVD299 ErbB3 arm (antibody, V domains shown)
VH: QVQLQQWGAGLLKPSETLSLTCAVYGGSFSGYYWSWIRQPPGKGLEWIGEINHSGSTNYNPSLKSRVTISVETSKNQFSLKLSSVTAADTAVYYCARDKWTWYFDLWGRGTLVTVSS
VL: not shown
modifications: DVD-Ig outer
For the molecule B18, in the assay with ErbB3 [12], binding was characterised by a dissociation constant (Kd) of 0.82 nM. The same molecule displayed a concentration giving a half-maximal response (EC50) with ErbB3 [14] of 1.96 nM.

B19: AB062 (antibody, V domains shown)
VH: B18 VH
VL: not shown
As for B19, the Kd in the assay with ErbB3 [12] stood at 1.36 nM. Also, the EC50 with ErbB3 [13] amounted to 0.26 nM; with ErbB3 [14], 1.93 nM.
